The target in experiment [1] is T1, human LTBR endogenously expressed on cells (HepG2, A549, A375, HCC1187, RPMI-7951, primary human breast CAFs) (human, UniProt P36941 31-435). The experiment in a line: cell-based or functional assay.
Experiment [2] deals with T1, human LTBR endogenously expressed on …. As to the kind of experiment: cell-based or functional assay. The source holds these as a separate data set.
Experiment [3] shares this target. As to the kind of experiment: cell-based or functional assay. The source holds these as a separate data set.
Experiment [4] has the same target. As to the kind of experiment: flow cytometry, A549 cells. Here is the method: (§1) The ability of VHH-Fc fusion proteins to bind to endogenously expressed LTBR on the A549 tumor cell and to inhibit human LIGHT (Acro, cat. no LIT-H5242) binding to A549 cells was assessed. BHA10 was employed in the assay as a positive control. Recombinant human LIGHT was labelled with PE fluorochrome, using PE/R-Phycoerythrin Conjugation Kit—Lightning-Link® (Abcam, cat no ab102918), following the manufacturer's instructions. 1×10⁶ cells were resuspended in the FACS buffer (1% BSA, 0.1% Sodium Azide in PBS), and 50 ul was added to each well ([…]) of a 96-U bottom plate. The cells were washed and resuspended in 25 ul of antibody dilution (2× final concentration) followed by 0.5 h incubation at 4° C., 25 ul of PE labelled LIGHT at 48 nM (2× final concentration) in FACS buffer was subsequently added to the cells and additionally incubated for 1 h at 4° C. […] Next, cells were extensively washed and fixed with Paraformaldehyde Solution, 4% in PBS (Thermo Scientific, cat no J19943.K2) for 20 mins, following the manufacturer's instructions. The cells were then washed, resuspended in PBS, and read on Beckman Coulter CytoFLEX. The data were analysed using FloJo V10 and GraphPad Prism v9. The IC50 and EC50 values can be found in.

Experiment [5] has the same target. The experiment in a line: flow cytometry, A549 cells. Here is the method: In short, 1×10⁶ cells were resuspended in the FACS buffer (1% BSA, 0.1% Sodium Azide in PBS), and 50 μl was added to each well (5×10⁴ cells/well) of a 96-U bottom plate. The cells were washed once and resuspended in 50 μl/well of FACS buffer containing a 1:3, 11-point series dilutions of constructs 4.1-4.6 and clones 4.8-4.9 followed by 1 h incubation at 4° C. […] Next, cells were washed and resuspended in FACS buffer and read on Beckman Coulter CytoFLEX. The data were analysed using FloJo V10 and GraphPad Prism v9. Clone 4.7 was tested for binding to A375 (LTBR positive cell line) and the HEK293-FAP overexpressing cell line, as described in examples 2.4 and 3.5. The EC50 values can be found in.
This is another data set of the same source.

Experiment [6] has the same target. As to the kind of experiment: flow cytometry, inhibition of PE-LIGHT (24 nM final) binding to A549 cells; competitor LIGHT; partial inhibition. The protocol: as §1
The target is the same in experiment [7]. The experiment in a line: cell-based or functional assay. The source holds these as a separate data set.
The target is the same in experiment [8]. The experiment in a line: cell-based or functional assay. The source holds these as a separate data set.
For experiment [9] the target is unchanged. The experiment in a line: cell-based or functional assay. The source holds these as a separate data set.
Experiment [10] has the same target. The experiment in a line: cell-based or functional assay. The source holds these as a separate data set.
For experiment [11] the target is unchanged. As to the kind of experiment: cell-based or functional assay. This is another data set of the same source.
The target is the same in experiment [12]. As to the kind of experiment: flow cytometry, A375 cells.
For experiment [13], the target named is T2, human FAP expressed on cells (transfected HEK293; FAP-CHO-K1 recombinant cell line, BPS cat no. 79947) (human, UniProt Q12884 1-760).
T2 construct: also called HuFAP-HEK293; Hek-FAP
The experiment in a line: flow cytometry, HEK293-FAP overexpressing cells.

Experiment [14] deals with Human LTBR (Acro), recombinant protein (human, UniProt P36941 31-227, limits assumed). As to the kind of experiment: SPR (Carterra LSA) as in Example 2.6, antibody captured, LTBR as analyte. The protocol:
(§2) The binding of anti-LTBR antibodies to human and cynomolgus LTBR was investigated by Surface Plasmon Resonance (SPR) on Carterra LSA. An EC30M chip was used to capture the test antibodies. Activation with EDC and sNHS occurred in MES pH 5.5 to prepare the chip for amine coupling. Goat anti-human IgG Fc antibody was then captured to the chip via incubation for 10 minutes. Excess conjugation sites were quenched with 1M Ethanolamine pH 8. To measure monovalent binding kinetics, antibodies were printed/spotted onto the chip and allowed to bind to the goat antibody, followed by subsequent washing. After the preparation, the printed chip was exposed to repeated rounds of association and dissociation with increasing analyte concentrations. In this work, recombinant proteins (Human LTBR (Acro) or cyno LTBR His (R&D)) were serially diluted across a range starting at 1500 nM with 3-fold dilutions and 10 points. The curves were fitted to global fit in a 1:1 binding model to obtain KD values. The binding affinity to both species is reported.

In experiment [15] the target is T3, cyno LTBR His (R&D), recombinant protein (cynomolgus (Macaca fascicularis), UniProt P36941 31-227 (human entry), limits assumed).
T3 construct: bought protein used as analyte on Carterra LSA
Described as above. The protocol:
as §2

Experiment [16] has as its target Human FAP (Acro), recombinant protein (human, UniProt Q12884 26-760). The experiment in a line: SPR (Carterra LSA) as in Example 3.6, antibody captured, FAP as analyte; * value outside instrument specifications. Here is the method:
(§3) Binding of anti-FAP antibodies to human and cynomolgus FAP was investigated by Surface Plasmon Resonance (SPR) on Carterra LSA. An EC30M chip was used to capture the test antibodies. The chip was activated for bioconjugation using EDC and sNHS in MES pH 5.5 to prepare the chip for amine coupling. Goat anti-human IgG Fc antibody was then captured to the chip via incubation for 10 minutes. Excess conjugation sites were quenched with 1M Ethanolamine pH 8. To measure monovalent binding kinetics, antibodies were printed/spotted onto the chip and allowed to bind to the goat antibody, followed by subsequent washing. After the preparation, the printed chip was exposed to repeated rounds of association and dissociation with increasing analyte concentrations. In this work, recombinant proteins (Human FAP (Acro) or cyno FAP His (Acro)) were serially diluted across a range starting at 1500 nM with 3-fold dilutions and 10 points. The curves were fitted to global fit in a 1:1 binding model to obtain KD values. The binding affinity to both human and cynomolgus FAP is reported in.

For experiment [17], the target named is T4, cyno FAP His (Acro), recombinant protein (cynomolgus (Macaca fascicularis), UniProt Q12884 26-760 (human entry)).
T4 construct: bought protein used as analyte on Carterra LSA
The description is as above. Here is the method: as §3

B1: BHA10 (antibody, V domains shown)
VH: QVQLVQSGAEVKKPGSSVKVSCKASGYTFTTYYLHWVRQAPGQGLEWMGWIYPGNVHAQYNEKFKGRVTITADKSTSTAYMELSSLRSEDTAVYYCARSWEGFPYWGQGTTVTVSS
VL: DIQMTQSPSSLSASVGDRVTITCKASQNVGINVAWYQQKPGKAPKSLISSASYRYSGVPSRFSGSGSGTDFTLTISSLQPEDFATYFCQQYDTYPFTFGQGTKVEIK
notes: as disclosed in WO2004002431; also called BHA10 (anti-LTBR); monospecific anti-LTBR agonist
Regarding B1, the “HepG2 Reporter assay (NFKB activation-induced luciferase activity) EC50” value in [1] is 12 pM. Moreover, in [2], the “HCC1187 chemokine induction assay (CCL19) EC50” value turned out to be 530 pM. Besides, in [3], the “HepG2 reporter assay EC50 (w/o cross-linking antibody)” value stood at 52 pM and the “HepG2 reporter assay EC50 (with cross-linking antibody)” value was 29 pM. For the same molecule, the EC50 in [4] was 780 pM. This molecule also gave an EC50 in [5] of 55 pM. Also, the IC50 in experiment [6] worked out at 670 pM.

B2: Clone 4.7 (bispecific antibody, human IgG1, kappa, L234A L235A)
heavy 1: not shown
heavy 2: QVQLVQSGAEVKKPGASVKVSCKASGYTFTGYYMNWVRQAPGQGLEWMGWINPQSGDVNFAQKFQGRVTMTRDTSISTAYMELSRLRSDDTAVYYCARQFRGYSYGYGMDVWGQGTTVTVSSASTKGPSVFPLAPSSKSTSGGTAALGCLVKDYFPEPVTVSWNSGALTSGVHTFPAVLQSSGLYSLSSVVTVPSSSLGTQTYICNVNHKPSNTKVDKKVEPKSCDKTHTCPPCPAPEAAGGPSVFLFPPKPKDTLMISRTPEVTCVVVDVSHEDPEVKFNWYVDGVEVHNAKTKPREEQYNSTYRVVSVLTVLHQDWLNGKEYKCKVSNKALPAPIEKTISKAKGQPREPQVCTLPPSRDELTKNQVSLSCAVKGFYPSDIAVEWESNGQPENNYKTTPPVLDSDGSFFLVSKLTVDKSRWQQGNVFSCSVMHEALHNHYTQKSLSLSPG
light: not shown
notes: FAP:LTBR 2:1 heterodimer of FAP mAb (clone 3.7) with C terminal fused LTBR scFv (clone 2.3), human IgG1 LALA
Consider B2, for which the “HepG2 Reporter assay, HepG2:FAP-CHO-K1 Co-culture EC50” value in experiment [7] was determined as 23 pM. Moreover, in experiment [8], the “CCL19 upregulation, HCC1187:CAF Co-culture EC50” value was 73 pM. In experiment [9], the “ICAM1 upregulation in CAFs monoculture assay EC50” value came to 12 pM. Also, the “chemokine (CCL5) induction in RPMI-7951 EC50” value in [10] was 9.6 pM. Also, the “HCC-1187:RPMI7951 (cis-activation) co-culture assay CCL5 read-out EC50” value in [11] stood at 10 pM. The EC50 in experiment [12] turned out to be 6000 pM; in experiment [13], 340 pM. The dissociation constant (Kd) in experiment [14] was 1800 pM; in [15] it was 400 pM; in experiment [16], 160 pM; in [17], 150 pM.
